Assay results reported in US20250186614A1, “COMPACT DRUG RESPONSIVE DOMAINS FOR REGULATION OF FUNCTION/ABUNDANCE AND DELIVERY OF POLYPEPTIDE PAYLOADS” (OBSIDIAN THERAPEUTICS, INC., priority 2022, published 2025).
Where a chain is given by its changes, count along the chain named. Numbers in names are those of the source. Like-named read-outs stand apart in the source and are kept apart here.

B1: FKBP-208 (protein)
chain: HCPIKSRKGDVLHAHYTGKLEDGTEFDSSLPRNQPFVFSLGTGERIKGWDQGLLGMCEGEKRKLVIPSELGYGERGWPPKIPGGATLVFRVELLKIER
modifications: Description of sequence: Construct Name: FKBP-208; Mutation(s): Q72R Q84E A117W V85R DRD M54A E130R
B2: FKBP-216 (protein)
chain: B1 chain with E21Y, R45V, K61W, R90E, K95Y
modifications: Description of sequence: Construct Name: FKBP-216; Mutation(s): Q72R Q84E A117W DRD M54A E61Y K101W K135Y
B3: FKBP-214: FKBP13 DRD-AcGFP construct of Table 10 (protein)
chain: B1 chain with P3R, E44G, R90E
modifications: Description of sequence: Construct Name: FKBP-214; Mutation(s): Q72R Q84G A117W V85R DRD P43R M54A
B4: FKBP-211 (protein)
chain: B1 chain with D22S, R90E
modifications: Description of sequence: Construct Name: FKBP-211; Mutation(s): Q72R Q84E A117W V85R DRD M54A D62S
B5: FKBP-220: FKBP13 DRD-AcGFP construct of Table 10 (protein)
chain: B1 chain with A14M, T24G, R90E
modifications: Description of sequence: Construct Name: FKBP-220; Mutation(s): Q72R Q84E A117W V85R DRD T25G
B6: FKBP-210 (protein)
chain: B1 chain with E58L, R90E
modifications: Description of sequence: Construct Name: FKBP-210; Mutation(s): Q72R Q84E A117W V85R DRD M54A E98L
B7: FKBP-223: FKBP13 DRD-AcGFP construct of Table 10 (protein)
chain: B1 chain with P3W, T24R, R90E
modifications: Description of sequence: Construct Name: FKBP-223; Mutation(s): Q72R Q84E A117W V85R DRD M54A P4W T25R
B8: FKBP-224 (protein)
chain: B1 chain with P3R, A14M, R45V, R90E
modifications: Description of sequence: Construct Name: FKBP-224; Mutation(s): Q72R Q84E A117W DRD P43R
B9: FKBP-209: FKBP13 DRD-AcGFP construct of Table 10 (protein)
chain: B1 chain with K61W, R90E
modifications: Description of sequence: Construct Name: FKBP-209; Mutation(s): Q72R Q84E A117W V85R DRD M54A K101W
B10: FKBP-222 (protein)
chain: B1 chain with P3W, A14M, T24R, R45V, R90E
modifications: Description of sequence: Construct Name: FKBP-222; Mutation(s): Q72R Q84E A117W DRD P4W T25R
B11: FKBP-218 (protein)
chain: B1 chain with E21G, R45V, K61G, R90E, K95E
modifications: Description of sequence: Construct Name: FKBP-218; Mutation(s): Q72R Q84E A117W DRD M54A E61G K101G K135E
B12: FKBP-229: FKBP13 DRD-AcGFP construct of Table 10 (protein)
chain: B1 chain with R90E, E97R
modifications: Description of sequence: Construct Name: FKBP-229; Mutation(s): Q72R Q84E A117W V85R DRD E137R M54A
B13: FKBP-163 (protein)
chain: B1 chain with M56V, R90E
modifications: Description of sequence: Construct Name: FKBP-163; Mutation(s): Q72R Q84E A117W DRD M54A M96V V85R
B14: FKBP-230: FKBP13 DRD-AcGFP construct of Table 10 (protein)
chain: B1 chain with A14M, G23M, R45V, R90E
modifications: Description of sequence: Construct Name: FKBP-230; Mutation(s): Q72R Q84E A117W DRD G63M
B15: FKBP-221 (protein)
chain: B1 chain with T24G, R90E
modifications: Description of sequence: Construct Name: FKBP-221; Mutation(s): Q72R Q84E A117W V85R DRD M54A T25G
B16: FKBP-231 (protein)
chain: B1 chain with A14M, G23M, R90E
modifications: Description of sequence: Construct Name: FKBP-231; Mutation(s): Q72R Q84E A117W V85R DRD G63M
B17: FKBP-226: FKBP13 DRD-AcGFP construct of Table 10 (protein)
chain: B1 chain with P3R, R90E
modifications: Description of sequence: Construct Name: FKBP-226; Mutation(s): Q72R Q84E A117W V85R DRD P43R M54A
B18: FKBP-217 (protein)
chain: B1 chain with E21Y, K61W, R90E, K95Y
modifications: Description of sequence: Construct Name: FKBP-217; Mutation(s): Q72R Q84E A117W V85R DRD M54A E61Y K101W K135Y
B19: FKBP-227 (protein)
chain: B1 chain with A14M, R45V, R90E, E97R
modifications: Description of sequence: Construct Name: FKBP-227; Mutation(s): Q72R Q84E A117W DRD E137R
B20: FKBP-225 (protein)
chain: B1 chain with P3R, A14M, R90E
modifications: Description of sequence: Construct Name: FKBP-225; Mutation(s): Q72R Q84E A117W V85R DRD P43R
B21: FKBP-213 (protein)
chain: B1 chain with P3R, E44G, R45V, R90E
modifications: Description of sequence: Construct Name: FKBP-213; Mutation(s): Q72R Q84G A117W DRD P43R M54A
B22: FKBP-164 (protein)
chain: B1 chain with P78V, R90E
modifications: Description of sequence: Construct Name: FKBP-164; Mutation(s): Q72R Q84E A117W DRD M54A P118V V85R
B23: FKBP-219 (protein)
chain: B1 chain with E21G, K61G, R90E, K95E
modifications: Description of sequence: Construct Name: FKBP-219; Mutation(s): Q72R Q84E A117W V85R DRD M54A E61G K101G K135E
B24: FKBP-232 (protein)
chain: B1 chain with G23M, R90E
modifications: Description of sequence: Construct Name: FKBP-232; Mutation(s): Q72R Q84E A117W V85R DRD G63M M54A
B25: FKBP-212 (protein)
chain: B1 chain with H13L, R90E
modifications: Description of sequence: Construct Name: FKBP-212; Mutation(s): Q72R Q84E A117W V85R DRD M54A H53L

Assay: Example 4: dose response of FKBP constructs 160-255, Ec50, Ec90 and fold change (raw and normalized to mCherry)
Type: cell-based
Conditions: for FC (fold change): fold change during initial analysis
Procedure: Additional experiments were performed for constructs FKBP-160-292.

[1] = FKBP constructs 160-255, not normalized, read-out: EC90
[2] = normalized to mCherry, read-out: EC90 (Norm)

Molecule | EC90 [1] | FC (fold change) | EC90 [2]
B1 | 4220 nM | 87.2 | 4120 nM
B2 | 14100 nM | 27.6 | 14500 nM
B3 | 388 nM | 51.0 | 390 nM
B4 | 452 nM | 35.7 | 481 nM
B5 | 156 nM | 34.2 | 165 nM
B6 | 191 nM | 32.8 | 208 nM
B7 | 674 nM | 52.5 | 713 nM
B8 | 78.6 nM | 5.2 | 88.7 nM
B9 | 682 nM | 56.0 | 777 nM
B10 | 612 nM | 40.6 | 602 nM
B11 | – | 4.46 | –
B12 | 484 nM | 54.0 | 455 nM
B13 | 756 nM | 29.4 | 1010 nM
B14 | 997 nM | 49.0 | 890 nM
B15 | 495 nM | 41.8 | 567 nM
B16 | 396 nM | 39.9 | 399 nM
B17 | 44.6 nM | 31.5 | 47 nM
B18 | 16100 nM | 36.8 | 17500 nM
B19 | 293 nM | 29.0 | 278 nM
B20 | 25.4 nM | 20.6 | 26 nM
B21 | 47.4 nM | 28.8 | 47 nM
B22 | 580 nM | 42.7 | 621 nM
B23 | – | 5.4 | –
B24 | 938 nM | 35.0 | 1090 nM
B25 | 299 nM | 40.2 | 317 nM
